Results from a protein production outcome set (Wang et al. 2014).

Assay: label from the status in PepcDB records

Sequence | protein production
MGKFLIPIEFVFLAIAMTCYLWHRQNQERRRIEISIKQQTQRERFINQITQHIRQSLNLETVLNTTVAEVKTLLQVDRVLIYRIWQDGTGSAITESVNANYPSILGRTFSDEVFPVEYHQAYTKGKVRAINDIDQDDIEICLADFVKQFGVKSKLVVPILQHNRASSLDNESEFPYLWGLLITHQCAFTRPWQPWEVELMKQLANQVAIAIQQSELYEQLQQLNKDLENRVEKRTQQLAATNQSLRMEISERQKTEAALRHTNHTLQSLIAASPRGIFTLNLADQIQIWNPTAERIFGWTETEIIAHPELLTSNILLEDYQQFKQKVLSGMVSPSLELKCQKKDGSWIEIVLSAAPLLDSEENIAGLVAVVADITEQKRQAEQIRLLQSVVVNTNDAVVITEAEPIDDPGPRILYVNEAFTKITGYTAEEMLGKTPRVLQGPKTSRTELDRVRQAISQWQSVTVEAEVLNDSYKEKKSPLK | failed
MHEKVPKKTYDSELYNGYLAIYNGYGDLRYFTVKIENDICVSLVWNTGMTKKSRGKKRIRINVYRPKIAPAKNKKPKPTKEQLMDPEFSDEDVLTSLGFDDGGYIIPLPKKSLMLINLPDSFRDELQTMHVSFYLREVGKLMFG | failed
MAKFNQDLNEVLNQALNLALDLNHALCTTEHVLLVILEHESGEKIIGTLERDDYDKLKQILKDYLLQYVPLKSDPAKMPARSFVLLRMLKRMYASCFESVGVEELLILMLDHPDCYASKLMDSFGIARLYSNPALLDLDNHGIPNDINDNEEAPKNTPLKKYAKNLSALAQDNALDPVIGREEEILRVIEILGRRKKNNPLLIGEAGVGKTSIAEALALKIAQKEVPEFLQEYEVYSLDLALMVAGAKYRGDFEKRLKKTLKEIQQNGRIILFIDEIHTLLGTGSSNAGSLDAANILKPVLTDGSLKCLGATTFEEYRSVFEKDKAFNRRFSVIKVEEPSKEACYLILKKIAPLYEEHHQVRYDESVFKACVDLTSDYMHDKFLPDKAIELLDEVGSRKKISPKKGKKIGVDDVKETLALKLKIPKMRLSSDKKALLRNLEKSLKNKIFAQAEAISLVSNAIKIQHCGLSAKNKPVGSFLFVGPSGVGKTELAKELALNLNLHFERFDMSEYKEAHSVAKLIGSPSGYVGFEQGGLLVNAIKKHPHCLLLLDEIEKAHSNVYDLLLQVMDNATLSDNLGNQASFKHVILIMTSNVGSKDKDTLGFFSAKNTKYDKAVKELLTPELRSRIDAIVPFNALSLEDFERIVSVELDKLKALALEQDITLKFHKEVVKFIAQKSYQTTLGAREIKKIIHNEIKTKLSDILLLQSFKKPCKIACLLEKNQLVLKEIKRAQKVKENDF | failed
MCSIGVTALCSPAKFHHRREQSLIFTPTHLRNPNGFQFRWRKSRPFAPRLAQPDNFAPPLPLIRSSTSLLSSKDFVQMLARKAAILLVGSFVFLGFCSSKPALALPTATVVSQAELEDEKMFEKLLENEPENMEAMKAVVYKKMRRGKNEDAVKYVEKLMKLEPHEVEWKLLEALCYETMGELSKAKRLYKDILKEQPLLIRALHGLAMVMHKTHDTSVFDMLIEAMEVARQGNRVTEERNIQVLIGQMHIVEGQFEEGLKIFQQMVNDNPRDFRPYLCQGIVYSLMDKKEEAAQQFEIYWSLVPGEFPQKGFLDDVALAAQAKSRERLQNTFKAKFTQGR | failed
MPVKRIAVFSTTHIGFLDMLGRSDGIIGVSRPEFVNTPAVRSRIRSGAIKAIGMPFSPDVEALLNLEPDLVIAPALPAARKTDYQALVQAGIPVLVVAEWLEPSPLGRAEWIKLFGALVGKEKLARERFAAIESSYLKIAALSRNLPLEHHHHHH | failed
EDVKEFEREETQDKEESVESSLPLNAIEPCVICQGRPKNGCIVHGKTGHLMACFTCAKKLKKRNKPCPVCRQPIQMIVLTYFP | failed
MTAKPAVVGGFILGALALGVAAIVLFGGQRLFTSTREVVVFFNESVAGLQVGAPVTFHGVPVGTVKTIALRVSTRDLSARIPVVLELQPDQISWEGEHLNGDDDTYQRLIAAGLRAQLAPQSIVTGQMRVDLDFKPGTSAALSGEPTDLPEIPAVASDLDELRDKVTELPLRDLVETAQKTLANVQALTSSLNTRIPTLTTSAEQSVAVATQTLVTTQEAVRQIQADASVTLKELSDLLADLHRQVDARGGELGKTLSAAERTARQAESLMISLNELAGPRARFRADLEAAARDLSASASSTRSFTRTLERDPSALLSGDTKR | failed
MTAFDPFEDFGDTEEIGERLNDADPAVRRLAVIDLAETANADVLPHLLTAVADPDATVRLQVAIALSEFDTVEAAAGLARLAADQDLTVAQAAADSLAELKDPATADSILPLVSHGRAFVRAAGFRGLKALRSRGALAPALAAMRDEDANVRAQALGVVAYLKLEETLPSLIAATRDAEAIVRSVAVNALSFTSQPAAAAAVTAALDDENWQVRAAAADTLGRIGQTSAVDGLTAGLSDEYWQVRQKCLNALGKLKAQSAVRQISELLTSDLASLRKESAAALGEIADPSSRAVLMHHIGDADPDVRKTVCWALTRLG | failed
MLKELFVNLTILITFNYLFTHLFKERLVHKKDSISFQAVKGLACGLLGVILMVFGFTYQHSIIDLRNIPIMIAALYGGWVSTATALAMITAGRLLITMNTSALYSVIIICIAAIPSLIVSRRKKVQLKHAFYLLIITNSLISFSFYFLIDLHSYELHLYFWIISIAGGMLSLYIIDHETNAHLLFKQYKFQAHFDFLTGVYNRRKFEETTKALYQQAADTPHFQFALIYMDIDHFKTINDQYGHHEGDQVLKELGLRLKQTIRNTDPAARIGGEEFAVLLPNCSLDKAARIAERIRSTVSDAPIVLTNGDELSVTISLGAAHYPNNTEQPGSLPILADQMLYKAKETGRNRVCFSEKKE | failed
MKAVRRQISRFSAHRWWSIVLKEFLQLRRDRVTFGMMIGIPIIQLLLFGFAINSDPRHMPTAVIVAEHSDFSRTFIAALDNTTYFKVVRTMPDEASGREALMRGDVQFVVSIPADFSRRLLHGDRPSILVEADATDPSATGQAIAALAQLPATVARIDLKGALAPLAGGQPAFDVNVHRLYNPEGITQYNIVPGLMGTILTMTMVMMTGLAMTRERERGTMENLLATPVQPLEVISGKIIPYIFIGLIQATIILLAAHFVFGVPFVGSPVAVYLAALLFIAANLTVGITLSSLAANQLQALQLTFFYFLPNILLSGFMFPFAGMPTWAQWIGNVLPMTYFNRMIRSIMLKGSGWIELWPNVWPVALFTVIVLTIAVRFYKRTLD | failed
MITGTLINALTVVFASLLGLAIGSRLSESIRGAIINVLGLAVLLIGISMALETKNVLIPTLSVVAGTAVGEVMGIEKALQSFGDRVERRLGKGRFSEGFVAATLLYCVGPMAILGPIQEGLTGDMSVLMAKSLLDGVASVALASALGIGVAFSSISILVYQGFFALLAAQLSSVVTERIIAEFTSTGGLLIMGIGINLLELRKLRVGNMLPALIFAPLIVAVLQLTGL | failed
MSVASLPSFLCLSQESSRRASARRESPSSPRTWAGWIPVTGTGMRECVVALCLLLTLIFAAASPALAFNPDEVLKDPVLEQRARNLTSQLRCMVCQNQSIDDSNAELARDLRVLVRERLVQGDSDKAVIDYVVSRYGEFVLLKPRLSLRTLLLWGAPIGLTLAGIFAVFVFSRRRATQERPQKLSADEEERIRNLIEK | failed
MTVTAPNALNFECETGNYHTFCPISCVAWLYQKIEDSFFLVIGTKTCGYFLQNAMGVMIFAEPRYAMAELEEGDISAQLNDYEELKRLCLEIKRDRNPSVIVWIGTCTTEIIKMDLEGLAPKLEAEIGIPIVVARANGLDYAFTQGEDTVLAAMAARCPTSTAISDPEERNPIQRLLNFGKKKEEVQAQSSQYHPHPPLVLFGSLPDPVVTQLTLELKKQGIKVSGWLPAKRYTELPVIDEGYYVAGVNPFLSRTATTLIRRRKCQLITAPFPIGPDGTRTWIEQICATFGIQPQGLAEREAETWQKLSDYLELVRGKSVFFMGDNLLEISLARFLIRCGMRVLEIGIPYMDKRYQAAELALLSQTCAEMGHPLPTIVEKPDNYNQLQRIKALQPDLVITGMAHANPLEARGISTKWSVEFTFAQIHGFGNARDILELVTRPLRRNQALAGLGWQKLVAH | not failed
MQRTLDITQAMIDGYGRINGDNDIIHYDHDYAVQRGFRGTLLHGPHMTALAADLGARRYASDWLYRGKLHTKWIGPVCPGDTFVAALNEQGEIEAVSGGKTVMVGSASLAD | failed
MKYMIPDEEFIRREGVPITKEEIRAVSIGKLNLNKDDVVVDVGCGSGGMTVEIAKRCKFVYAIDYLDGAIEVTKQNLAKFNIKNCQIIKGRAEDVLDKLEFNKAFIGGTKNIEKIIEILDKKKINHIVANTIVLENAAKIINEFESRGYNVDAVNVFISYAKKIPSGHMFLAKNPITIIKAVR | not failed
